T1: MRS fragment 1 (1~266 aa)
T1 construct: Expressed in H460 cells from pcDNA3; also called lane 1
T1 single chain: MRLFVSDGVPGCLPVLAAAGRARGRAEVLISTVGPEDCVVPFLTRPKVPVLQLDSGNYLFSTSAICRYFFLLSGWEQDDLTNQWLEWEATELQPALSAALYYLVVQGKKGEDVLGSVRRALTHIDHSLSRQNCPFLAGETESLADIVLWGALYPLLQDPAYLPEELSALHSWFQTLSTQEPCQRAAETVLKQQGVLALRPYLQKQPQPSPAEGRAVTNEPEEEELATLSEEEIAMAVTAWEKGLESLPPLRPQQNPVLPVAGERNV

T2: co-purified MRS-AIMP3 protein (human, UniProt P56192 1-900; O43324 1-174, limits assumed)
T2 construct: MRS and AIMP3 co-expressed in E. coli BL21DE3 and co-purified
T2 sequence 1: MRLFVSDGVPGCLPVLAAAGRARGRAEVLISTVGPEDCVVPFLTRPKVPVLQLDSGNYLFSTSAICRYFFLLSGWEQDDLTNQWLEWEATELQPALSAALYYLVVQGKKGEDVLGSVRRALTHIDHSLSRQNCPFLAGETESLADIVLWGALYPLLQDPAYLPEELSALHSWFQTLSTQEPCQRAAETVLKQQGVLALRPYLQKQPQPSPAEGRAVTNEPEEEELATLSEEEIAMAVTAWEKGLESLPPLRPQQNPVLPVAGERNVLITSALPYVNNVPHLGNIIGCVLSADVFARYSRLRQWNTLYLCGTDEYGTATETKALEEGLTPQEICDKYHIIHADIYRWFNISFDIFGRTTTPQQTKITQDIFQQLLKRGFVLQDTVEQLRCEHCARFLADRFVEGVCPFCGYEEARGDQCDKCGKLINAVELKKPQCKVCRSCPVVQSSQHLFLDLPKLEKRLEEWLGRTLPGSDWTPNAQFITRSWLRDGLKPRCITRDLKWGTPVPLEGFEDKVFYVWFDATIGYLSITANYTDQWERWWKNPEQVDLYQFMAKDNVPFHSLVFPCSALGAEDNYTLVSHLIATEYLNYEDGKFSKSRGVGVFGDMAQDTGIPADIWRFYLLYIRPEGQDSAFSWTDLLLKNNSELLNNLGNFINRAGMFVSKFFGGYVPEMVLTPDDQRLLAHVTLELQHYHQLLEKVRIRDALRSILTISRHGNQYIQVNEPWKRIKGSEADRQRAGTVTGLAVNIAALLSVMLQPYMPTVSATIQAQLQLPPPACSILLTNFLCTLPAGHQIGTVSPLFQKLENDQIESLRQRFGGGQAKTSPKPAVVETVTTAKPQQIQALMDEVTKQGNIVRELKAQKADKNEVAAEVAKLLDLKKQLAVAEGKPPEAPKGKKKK
T2 sequence 2: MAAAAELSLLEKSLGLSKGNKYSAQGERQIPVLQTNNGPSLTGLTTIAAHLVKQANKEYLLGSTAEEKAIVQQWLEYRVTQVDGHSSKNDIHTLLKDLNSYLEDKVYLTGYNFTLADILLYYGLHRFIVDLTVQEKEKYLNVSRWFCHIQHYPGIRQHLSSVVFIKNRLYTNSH

B1: 8A12 antibody (8A12 IgG) (antibody, V domains shown)
VH: DVKLQESGPGLVKPSQSLSLTCTVTGYSITSEYAWTWIRQFPGNKLEWMGYINYNGNTNLNPSLKSRISIIRDTSKNQFFLQLNSVTTEDTATYYCARSLWPRGWFAYWGQGTLVTVSA
VL: DIQMTQSPSSMYASLGERVTITCKASQDINSYLSWFQQKPGKSPKTLMYRANRLVDGVPSRFSGSGSGQDYSLTISSLEYEDMGIYYCLQYDEFPRTFGGGTKLEIKA
notes: Mouse monoclonal from hybridoma clone 8A12; also called 8Al2; anti-MRS antibody (8A12)
B2: 1E8 antibody (1E8 IgG) (antibody, V domains shown)
VH: DVKLQESGPGLVNPSQSLSLTCTVTGYSITSDYAWNWIRQFPGNKLEWMGYISYSGRTSYKSSLKSRISITRDTSKNQFFLELNSVTTEDTATYYCARDYGNFVGYFDVWGAGTTVTVSS
VL: DIVMTQSPSSLAVSVGEKVTMSCKSSQSLLYSSNQKNYLAWYQQKPGQSPKLLIYWASTRESGVPDRFTGSGSGTEFTLTISSVKAEDLAVYYCQQYYSYPTFGGGTKLEIKA
notes: Mouse monoclonal from hybridoma clone 1E8; also called IE8; anti-MRS antibody (1E8)

Tests used:
[1] = target: T1, MRS fragment 1 (1~266 aa); assay: western blot of lysates of H460 cells transfected with Myc-tagged MRS fragments
Experimental: Six fragments of different lengths and positions were prepared based on the GST, catalytic domain, and tRNA binging domains of the MRS protein, and MRS protein and each of the MRS fragments were cloned into pcDNA3 vector (EV). At this time, since Myc protein is linked to the N-terminus of MRS protein, Myc protein was used as a control.
Then, 2 μg of the cloned vector DNA were transfected into H460 cells using Turbofect (Thermo) according to the manufacturer's instructions. After 24 hours, cells were harvested and subjected to western blot. 1E8 antibody and 8A12 antibody were diluted 1:5000 (0.2 μg/mL) as the primary antibody.

[2] = target: T2, co-purified MRS-AIMP3 protein; assay: SPR, MRS+AIMP3 on CM5 chip, antibody flowed; 8A12 antibody; MRS+AIMP3 on the chip
Experimental: (§1) Surface plasmon resonance (SPR) experiments were carried out using 1E8 and 8A12 antibodies and MRS+AIMP3 protein obtained in Example 1.
(§2) CM5 chips were coated with MRS+AIMP3 or AIMP3 proteins and 1E8 or 8A12 antibodies were flowed at various concentrations to measure the degree of binding reaction with the proteins. Samples or buffers were injected for 8 minutes at a flow rate of 30 μl/min and washed for 20 minutes.

[3] = target: T2, co-purified MRS-AIMP3 protein; assay: SPR, CM5 chip coated with MRS+AIMP3, antibody flowed at 0.39 to 200 nM
Experimental: as §1, §2

[4] = target: T2, co-purified MRS-AIMP3 protein; assay: SPR, CM5 chip coated with MRS+AIMP3, antibody flowed at 0.20 to 200 nM
Experimental: as §1, §2

[5] = target: T2, co-purified MRS-AIMP3 protein; assay: SPR, MRS+AIMP3 on CM5 chip, antibody flowed; 1E8 antibody; MRS+AIMP3 on the chip
Experimental: as §1, §2

Row | Binder | binding result [1] | Kd [2] [nM] | koff [3] [s⁻¹] | kon [3] [M⁻¹ s⁻¹] | koff [4] [s⁻¹] | kon [4] [M⁻¹ s⁻¹] | Kd [5] [nM]
1 | B1 | no binding (tested: 0.2 µg/mL (1:5000, from paragraph 148)) | 1.56 | 0.000213 | 137000 |  |  | 
2 | B2 | no binding (tested: 0.2 µg/mL (1:5000, from paragraph 148)) |  |  |  | 0.000526 | 97100 | 5.42

— patent US20210130491A1 (ONCOTAG DIAGNOSTICS, published 2021)
